Source: article PMC8445900

What was measured:
Test in all cases: ITC
[1] = target: SARS-CoV-2 spike protein receptor-binding domain K417N (SARS-CoV-2) (UniProt P0DTC2)
[2] = target: SARS-CoV-2 spike protein receptor-binding domain S477N (SARS-CoV-2) (UniProt P0DTC2)
[3] = target: SARS-CoV-2 spike protein receptor-binding domain S494P (SARS-CoV-2) (UniProt P0DTC2)
[4] = target: SARS-CoV-2 spike protein receptor-binding domain T478I (SARS-CoV-2) (UniProt P0DTC2)
[5] = target: SARS-CoV-2 spike protein receptor-binding domain Y453F (SARS-CoV-2) (UniProt P0DTC2)

## CC12.1 single-chain fragment variable (scFv)
[1]
  Kd: 119 nM
  dH: -1.8 kcal/mol
[2]
  Kd: 25.6 nM
  dH: -5.7 kcal/mol
[3]
  Kd: 23 nM
  dH: -6.4 kcal/mol
[4]
  Kd: 5.8 nM
  dH: -5.6 kcal/mol
[5]
  Kd: 827 nM
  dH: -2.2 kcal/mol
